Test results taken from the supplement of paper PMC10065799, “High-throughput profiling of sequence recognition by tyrosine kinases and SH2 domains using bacterial peptide display” (eLife, 2023).

Key:
Grb2 SH2 = Grb2 SH2 (UniProt P62993); assay: SH2 binding enrichment of the phosphorylated peptide, bacterial display (enrichment ratio); higher = better substrate or ligand; peptides without Tyr show the background
c-Src SH2 = assay: as above
SHP2-C SH2 = assay: as above
AncSZ = assay: phosphorylation enrichment, bacterial display (enrichment ratio); higher = better substrate or ligand; peptides without Tyr show the background
Fer (mouse) = assay: as above
c-Src = assay: as above
Fes = Fes (UniProt P07332); assay: as above
Fes, sequence (P07332 whole entry, looked up): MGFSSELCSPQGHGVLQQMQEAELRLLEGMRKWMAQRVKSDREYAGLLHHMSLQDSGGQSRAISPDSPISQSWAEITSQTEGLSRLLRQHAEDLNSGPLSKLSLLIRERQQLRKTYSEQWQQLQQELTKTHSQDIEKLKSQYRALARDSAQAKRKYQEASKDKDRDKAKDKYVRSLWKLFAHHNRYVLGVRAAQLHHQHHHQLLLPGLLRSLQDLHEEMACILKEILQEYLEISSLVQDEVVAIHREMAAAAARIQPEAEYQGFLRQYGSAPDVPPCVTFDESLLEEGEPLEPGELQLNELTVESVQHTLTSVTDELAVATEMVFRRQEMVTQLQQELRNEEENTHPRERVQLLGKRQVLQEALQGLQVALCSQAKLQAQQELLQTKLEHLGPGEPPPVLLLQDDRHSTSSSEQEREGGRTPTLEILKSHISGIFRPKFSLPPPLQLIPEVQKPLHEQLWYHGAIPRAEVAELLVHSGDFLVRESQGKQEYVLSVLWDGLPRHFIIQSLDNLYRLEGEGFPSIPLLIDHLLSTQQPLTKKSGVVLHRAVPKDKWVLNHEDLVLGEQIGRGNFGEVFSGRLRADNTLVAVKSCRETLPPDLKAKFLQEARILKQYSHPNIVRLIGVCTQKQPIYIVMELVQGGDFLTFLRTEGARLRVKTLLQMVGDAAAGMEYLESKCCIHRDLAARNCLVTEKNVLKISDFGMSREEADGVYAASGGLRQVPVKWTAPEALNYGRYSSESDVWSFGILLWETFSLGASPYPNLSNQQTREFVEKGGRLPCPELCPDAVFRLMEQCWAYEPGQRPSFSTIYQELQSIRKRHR

MERTK = MERTK (UniProt Q12866); assay: as above
MERTK, sequence (Q12866 whole entry, looked up): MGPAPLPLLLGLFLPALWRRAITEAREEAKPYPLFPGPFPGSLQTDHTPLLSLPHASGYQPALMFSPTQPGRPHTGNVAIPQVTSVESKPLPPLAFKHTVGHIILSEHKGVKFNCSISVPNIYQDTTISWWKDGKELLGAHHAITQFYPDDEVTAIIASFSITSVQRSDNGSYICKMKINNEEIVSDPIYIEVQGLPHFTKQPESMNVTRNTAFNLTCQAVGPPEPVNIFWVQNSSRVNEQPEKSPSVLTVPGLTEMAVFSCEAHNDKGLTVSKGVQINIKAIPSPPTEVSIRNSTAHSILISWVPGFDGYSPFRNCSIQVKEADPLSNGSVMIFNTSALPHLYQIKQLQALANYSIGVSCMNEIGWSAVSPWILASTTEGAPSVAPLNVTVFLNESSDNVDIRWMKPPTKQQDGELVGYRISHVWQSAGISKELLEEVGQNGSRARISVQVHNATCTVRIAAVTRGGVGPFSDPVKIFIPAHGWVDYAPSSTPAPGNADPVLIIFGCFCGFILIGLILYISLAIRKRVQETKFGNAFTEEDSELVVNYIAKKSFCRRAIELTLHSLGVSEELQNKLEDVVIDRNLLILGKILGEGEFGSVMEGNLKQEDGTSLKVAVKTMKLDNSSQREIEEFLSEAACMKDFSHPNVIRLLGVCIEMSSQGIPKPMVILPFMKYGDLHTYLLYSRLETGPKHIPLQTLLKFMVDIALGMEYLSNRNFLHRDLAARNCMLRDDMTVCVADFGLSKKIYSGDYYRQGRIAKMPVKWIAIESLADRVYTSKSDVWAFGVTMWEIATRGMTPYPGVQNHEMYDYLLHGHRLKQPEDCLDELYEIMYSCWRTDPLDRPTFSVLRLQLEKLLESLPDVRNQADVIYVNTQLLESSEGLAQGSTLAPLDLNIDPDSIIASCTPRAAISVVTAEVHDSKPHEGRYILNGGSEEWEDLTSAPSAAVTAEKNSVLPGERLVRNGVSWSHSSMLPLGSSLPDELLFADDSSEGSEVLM

FGFR3 = FGFR3 (UniProt P22607); assay: as above
EPHB2 = EPHB2 (UniProt P29323); assay: as above
EPHB2, sequence (P29323 whole entry, looked up): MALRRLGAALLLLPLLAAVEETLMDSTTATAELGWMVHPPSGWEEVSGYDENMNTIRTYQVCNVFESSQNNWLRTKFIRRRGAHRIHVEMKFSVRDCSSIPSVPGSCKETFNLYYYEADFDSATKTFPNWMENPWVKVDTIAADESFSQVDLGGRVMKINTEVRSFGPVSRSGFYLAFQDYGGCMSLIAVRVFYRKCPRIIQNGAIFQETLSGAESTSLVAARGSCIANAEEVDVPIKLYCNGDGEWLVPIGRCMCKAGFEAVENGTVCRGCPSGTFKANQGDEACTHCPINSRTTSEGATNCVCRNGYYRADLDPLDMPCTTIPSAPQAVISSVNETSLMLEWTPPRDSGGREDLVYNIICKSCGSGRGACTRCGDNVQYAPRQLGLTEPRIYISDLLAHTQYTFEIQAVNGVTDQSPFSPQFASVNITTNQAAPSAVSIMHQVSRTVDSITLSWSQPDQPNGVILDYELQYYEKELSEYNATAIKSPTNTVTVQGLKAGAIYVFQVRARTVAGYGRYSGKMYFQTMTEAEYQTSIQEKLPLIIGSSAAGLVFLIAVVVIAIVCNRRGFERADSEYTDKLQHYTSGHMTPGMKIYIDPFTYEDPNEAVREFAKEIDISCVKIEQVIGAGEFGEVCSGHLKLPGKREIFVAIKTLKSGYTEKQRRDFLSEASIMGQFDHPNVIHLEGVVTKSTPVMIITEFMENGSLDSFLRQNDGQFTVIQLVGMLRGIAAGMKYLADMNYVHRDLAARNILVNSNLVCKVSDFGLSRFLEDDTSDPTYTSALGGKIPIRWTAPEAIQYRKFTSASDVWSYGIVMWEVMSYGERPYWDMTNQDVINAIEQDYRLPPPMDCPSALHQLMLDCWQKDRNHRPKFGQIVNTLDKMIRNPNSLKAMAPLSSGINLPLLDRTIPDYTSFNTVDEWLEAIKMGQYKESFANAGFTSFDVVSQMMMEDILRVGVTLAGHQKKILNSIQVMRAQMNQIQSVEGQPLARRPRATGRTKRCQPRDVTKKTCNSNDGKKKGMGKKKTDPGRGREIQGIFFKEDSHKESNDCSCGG

Jak2 = Jak2 (UniProt O60674); assay: as above
Jak2, sequence (O60674 whole entry, looked up): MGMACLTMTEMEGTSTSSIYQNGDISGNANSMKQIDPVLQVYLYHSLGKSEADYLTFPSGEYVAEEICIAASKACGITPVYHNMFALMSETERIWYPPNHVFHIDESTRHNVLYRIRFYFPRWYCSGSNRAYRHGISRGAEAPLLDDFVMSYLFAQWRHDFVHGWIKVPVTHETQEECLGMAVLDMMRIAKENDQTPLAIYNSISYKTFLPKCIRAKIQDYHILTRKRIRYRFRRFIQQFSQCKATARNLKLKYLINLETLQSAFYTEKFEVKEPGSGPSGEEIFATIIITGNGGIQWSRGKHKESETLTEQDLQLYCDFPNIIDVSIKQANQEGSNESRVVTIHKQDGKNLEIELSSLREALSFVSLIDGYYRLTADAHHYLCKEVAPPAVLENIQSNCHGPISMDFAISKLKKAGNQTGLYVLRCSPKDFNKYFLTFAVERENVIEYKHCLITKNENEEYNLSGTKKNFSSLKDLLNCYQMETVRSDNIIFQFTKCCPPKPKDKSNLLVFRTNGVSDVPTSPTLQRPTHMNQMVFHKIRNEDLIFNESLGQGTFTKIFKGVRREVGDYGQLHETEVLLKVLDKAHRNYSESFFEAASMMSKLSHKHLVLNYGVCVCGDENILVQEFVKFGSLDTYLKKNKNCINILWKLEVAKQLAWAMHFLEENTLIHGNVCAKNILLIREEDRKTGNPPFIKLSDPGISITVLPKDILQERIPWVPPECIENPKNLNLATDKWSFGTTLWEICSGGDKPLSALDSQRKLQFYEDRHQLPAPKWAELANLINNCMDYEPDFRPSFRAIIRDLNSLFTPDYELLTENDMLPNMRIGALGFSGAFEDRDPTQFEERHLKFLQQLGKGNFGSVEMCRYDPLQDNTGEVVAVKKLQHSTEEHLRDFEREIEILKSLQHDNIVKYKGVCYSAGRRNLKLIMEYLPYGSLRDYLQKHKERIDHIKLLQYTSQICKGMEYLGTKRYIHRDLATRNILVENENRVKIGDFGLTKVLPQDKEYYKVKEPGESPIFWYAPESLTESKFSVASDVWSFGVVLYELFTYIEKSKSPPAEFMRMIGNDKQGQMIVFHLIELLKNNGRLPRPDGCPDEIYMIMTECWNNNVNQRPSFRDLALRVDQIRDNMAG

Hck = Hck (UniProt P08631); assay: as above
Hck, sequence (P08631 whole entry, looked up): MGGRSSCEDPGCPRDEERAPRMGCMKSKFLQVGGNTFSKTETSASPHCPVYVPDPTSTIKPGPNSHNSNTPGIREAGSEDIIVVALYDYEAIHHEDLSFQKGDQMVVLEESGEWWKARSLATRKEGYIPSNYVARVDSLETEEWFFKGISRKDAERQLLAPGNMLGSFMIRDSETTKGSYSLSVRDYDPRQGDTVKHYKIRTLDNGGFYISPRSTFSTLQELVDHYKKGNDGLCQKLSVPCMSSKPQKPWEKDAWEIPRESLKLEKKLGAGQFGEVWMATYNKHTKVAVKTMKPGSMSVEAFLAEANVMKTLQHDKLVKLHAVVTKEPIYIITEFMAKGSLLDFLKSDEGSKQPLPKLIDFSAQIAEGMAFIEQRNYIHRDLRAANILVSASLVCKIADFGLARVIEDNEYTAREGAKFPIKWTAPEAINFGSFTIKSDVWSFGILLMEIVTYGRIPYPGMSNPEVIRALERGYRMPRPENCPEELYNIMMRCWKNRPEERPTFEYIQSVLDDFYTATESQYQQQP

EPHB1 = EPHB1 (UniProt P54762); assay: as above
FGFR1 = FGFR1 (UniProt P11362); assay: as above
c-Abl (mouse) = assay: as above
Fyn = Fyn (UniProt P06241); assay: as above
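Throughout, for SH2 binding enrichment of the phosphorylated peptide, bacterial display: peptide library displayed on the E. coli surface as eCPX fusions, selected cells deep-sequenced, score is each peptide's frequency after selection divided by its frequency in the input.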
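Throughout, for phosphorylation enrichment, bacterial display: 11-residue human phosphosite peptides and single-mutation variants displayed on the E. coli surface, counted by deep sequencing, each peptide's frequency after selection divided by its frequency in the unselected input library; frequency after pTyr selection over input frequency; kinase dosed for 20-30% of maximal phosphorylation in three min.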

Grb2 SH2, sequence (P62993 whole entry, looked up): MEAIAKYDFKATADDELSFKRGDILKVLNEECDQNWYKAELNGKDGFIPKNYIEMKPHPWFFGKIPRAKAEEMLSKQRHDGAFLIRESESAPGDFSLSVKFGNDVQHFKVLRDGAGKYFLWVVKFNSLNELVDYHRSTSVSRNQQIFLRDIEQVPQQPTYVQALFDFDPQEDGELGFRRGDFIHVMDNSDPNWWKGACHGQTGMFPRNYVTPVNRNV

Row | Sequence | SH2 binding enrichment (Grb2 SH2) | SH2 binding enrichment (c-Src SH2) | SH2 binding enrichment (SHP2-C SH2) | phosphorylation enrichment (AncSZ) | phosphorylation enrichment (Fer (mouse)) | phosphorylation enrichment (c-Src) | phosphorylation enrichment (Fes) | phosphorylation enrichment (MERTK) | phosphorylation enrichment (FGFR3) | phosphorylation enrichment (EPHB2) | phosphorylation enrichment (Jak2) | phosphorylation enrichment (Hck) | phosphorylation enrichment (EPHB1) | phosphorylation enrichment (FGFR1) | phosphorylation enrichment (c-Abl (mouse)) | phosphorylation enrichment (Fyn)
1 | DENCFYTRAAS [RPS19_Y54_W52C] | 0.868 | 0.942 | 3.23 | 1 | 0.485 | 0.722 | 0.936 | 0.461 | 0.728 | 0.554 | 0.841 | 0.576 | 0.587 | 0.594 | 0.675 | 0.569
2 | DENRFYTRAAS [RPS19_Y54_W52R] | 1.11 | 0.876 | 0.789 | 1.01 | 0.478 | 0.494 | 0.907 | 0.45 | 0.644 | 0.478 | 0.721 | 0.466 | 0.497 | 0.515 | 0.684 | 0.488
3 | DENWFYTRAAF [RPS19_Y54_S59F] | 0.73 | 0.571 | 0.96 | 1.25 | 0.571 | 0.534 | 1.32 | 0.55 | 0.786 | 0.594 | 1.48 | 0.629 | 0.681 | 0.586 | 0.868 | 0.47
4 | DFLEKYFKFGS [NNMT_Y24_YF] | 0.764 | 0.579 | 0.386 | 1.12 | 0.514 | 0.627 | 1.41 | 0.564 | 0.826 | 0.587 | 1.8 | 0.521 | 0.525 | 0.491 | 0.936 | 0.437
5 | DFPGIYSGFDD [POLR1C_Y33_N32I_YF] | 0.707 | 0.579 | 0.531 | 1.31 | 0.782 | 7.13 | 1.3 | 0.814 | 0.768 | 0.585 | 1.1 | 6.28 | 0.692 | 0.531 | 0.806 | 9.82
6 | DFPIGYPSYLA [TBCK_Y153] | 0.9 | 0.458 | 0.534 | 0.722 | 0.582 | 0.501 | 0.902 | 0.463 | 0.55 | 0.457 | 0.829 | 0.422 | 0.406 | 0.481 | 0.619 | 0.438
7 | DFRTTYVNANE [KCNH2_Y475_N470D] | 23.1 | 2.81 | 2.23 | 0.732 | 0.38 | 0.378 | 0.781 | 0.415 | 0.596 | 0.512 | 0.649 | 0.44 | 0.366 | 0.414 | 0.405 | 0.491
8 | DFTSRYLNASD [PKHD1_Y828] | 1.25 | 0.633 | 0.779 | 0.797 | 0.45 | 0.43 | 0.893 | 0.511 | 0.572 | 0.407 | 0.616 | 0.47 | 0.46 | 0.469 | 0.512 | 0.468
9 | DGFIDYAEFAK [MCFD2_Y138_YF] | 0.829 | 0.397 | 0.753 | 1.13 | 0.456 | 0.675 | 1.23 | 0.468 | 0.647 | 0.718 | 1.16 | 0.48 | 0.793 | 0.522 | 0.728 | 0.674
10 | DGNTRYSTFSE [TKTL1_Y318_D315N] | 0.655 | 1.02 | 1.07 | 0.789 | 0.383 | 0.569 | 0.969 | 0.339 | 0.533 | 0.48 | 1.01 | 0.418 | 0.473 | 0.402 | 0.746 | 0.319
11 | DGSALYTGSAL [COL6A3_Y524] | 0.713 | 0.382 | 0.641 | 0.612 | 0.643 | 0.536 | 0.638 | 0.404 | 0.474 | 0.439 | 0.591 | 0.858 | 0.418 | 0.313 | 0.459 | 0.84
12 | DLDFTYIFPNI [PTEN_Y27_L25F_YF] | 0.758 | 0.47 | 0.435 | 3.5 | 0.627 | 2.15 | 1.33 | 1 | 2.27 | 0.618 | 1.83 | 1.16 | 0.996 | 2.87 | 0.8 | 4.4
13 | DLLNSYIENEG [HSPA4L_Y600] | 1.04 | 0.693 | 0.656 | 0.996 | 0.545 | 0.343 | 0.999 | 0.375 | 0.875 | 0.561 | 1.17 | 0.484 | 0.573 | 0.528 | 0.585 | 0.53
14 | DLNATYCTIQG [U2SURP_Y634_R635C] | 0.982 | 1.2 | 0.7 | 1.31 | 1 | 5.32 | 1.07 | 2.36 | 0.954 | 5.72 | 0.845 | 7.17 | 7.15 | 1.06 | 0.78 | 9.64
15 | DLTQDSEEWKR [ORC6_Y232_Y232S] | 0.837 | 0.588 | 0.823 | 1.02 | 0.456 | 0.476 | 1.09 | 0.489 | 0.661 | 0.576 | 1.07 | 0.614 | 0.616 | 0.495 | 0.676 | 0.463
16 | DPEAAYTTRGG [EPHA3_Y779] | 0.872 | 0.357 | 0.588 | 0.629 | 0.45 | 0.475 | 0.717 | 0.374 | 0.507 | 0.385 | 0.652 | 0.468 | 0.466 | 0.376 | 0.559 | 0.531
